# Reference: patent publication US20150232539
# Tests used:
# [1] = target: HuD N-terminal fragment (1-117) in which the 8 N and D residues in the 36-amino acid flexible region were mutated to Q and E (UniProt P26378)
# [2] = target: HuD RRM1 lacking the N-terminal 36 amino acids (37-117 aa) (UniProt P26378)
# [3] = target: in vitro isoaspartyl-converted recombinant HuD N-terminal fragment (amino acids 1-117, wildtype) (UniProt P26378)
# [4] = target: native recombinant HuD N-terminal fragment (amino acids 1-117, wildtype, day 0, not converted) (UniProt P26378)
# native recombinant HuD N-terminal fragment (amino acids 1-117, wildtype, day 0, not converted), sequence (P26378 other isoform, or with tags, fused parts or gaps): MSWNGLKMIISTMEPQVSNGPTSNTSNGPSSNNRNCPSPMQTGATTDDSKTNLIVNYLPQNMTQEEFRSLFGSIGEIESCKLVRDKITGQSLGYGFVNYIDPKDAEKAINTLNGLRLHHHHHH
# [5] = test system: synapsin (isoaspartyl-converted, positive control)
# HuD RRM1 lacking the N-terminal 36 amino acids (37-117 aa), sequence (P26378 37-117): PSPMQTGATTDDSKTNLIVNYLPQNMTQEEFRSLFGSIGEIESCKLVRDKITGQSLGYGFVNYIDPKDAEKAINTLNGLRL
# in vitro isoaspartyl-converted recombinant HuD N-terminal fragment (amino acids 1-117, wildtype), sequence (P26378 whole entry, looked up, the tested form may be a part): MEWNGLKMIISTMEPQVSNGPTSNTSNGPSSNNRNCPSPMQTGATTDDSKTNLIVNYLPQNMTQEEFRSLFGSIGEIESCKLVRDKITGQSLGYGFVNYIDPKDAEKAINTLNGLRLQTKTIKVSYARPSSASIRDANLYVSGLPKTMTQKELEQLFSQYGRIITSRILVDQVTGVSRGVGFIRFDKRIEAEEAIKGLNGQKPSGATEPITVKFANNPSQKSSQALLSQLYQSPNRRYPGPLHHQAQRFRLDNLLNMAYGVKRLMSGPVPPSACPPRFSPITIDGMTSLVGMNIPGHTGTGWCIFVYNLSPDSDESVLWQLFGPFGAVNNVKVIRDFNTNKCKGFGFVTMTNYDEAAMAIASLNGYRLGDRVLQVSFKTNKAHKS
# HuD N-terminal fragment (1-117) in which the 8 N and D residues in the 36-amino acid flexible region were mutated to Q and E, sequence (P26378 other isoform, or with tags, fused parts or gaps, change not shown): as the sequence (P26378 other isoform, or with tags, fused parts or gaps) above
substance,measurement,setting,value
recombinant rat protein-L-isoaspartyl methyltransferase (PIMT),on-blot methylation with [3H]-AdoMet by PIMT,[1],Only the Day 3 and Day 7 samples from the original 117 amino acid fragment show above background labeling
same,on-blot methylation with [3H]-AdoMet by PIMT,[2],the RRM1 domain alone shows no signal above background when incubated under isoaspartylation conditions and then subjected to PIMT modification
same,PIMT-catalyzed [3H]-methyl incorporation from [3H]-AdoMet (autoradiography),[3],followed by a strong increase in PIMT-mediated methylation over the seven day incubation
same,PIMT-catalyzed [3H]-methyl incorporation from [3H]-AdoMet (autoradiography),[4],HuD exhibited no reactivity at Day 0
same,PIMT-catalyzed [3H]-methyl incorporation from [3H]-AdoMet (autoradiography),[5],Isoaspartyl-converted synapsin and HuD were visualized by methylation with [3H]-AdoMet by PIMT
